Key:
HLA-A*02:01 [1] = assay: IEDB peptide-MHC binding, purified MHC/competitive/fluorescence; ≥ and ≤ were set here for values at or beyond the usual limits of such assays
HLA-A*02:06 = assay: IEDB peptide-MHC binding, purified MHC/competitive/radioactivity; filed as Kd, often an IC50 or EC50 that approximates it; ≥ and ≤ were set here for values at or beyond the usual limits of such assays
HLA-A*02:03 = assay: as above
HLA-A*02:02 = assay: as above
HLA-A*30:02 = assay: as above
HLA-A*11:01 [2] = assay: IEDB peptide-MHC binding, purified MHC/direct/fluorescence; filed as Kd, often an IC50 or EC50 that approximates it; ≥ and ≤ were set here for values at or beyond the usual limits of such assays; conditions: source organism: Homo sapiens
HLA-A*01:01 [3] = assay: as above; conditions: source organism: Homo sapiens
HLA-A*69:01 = assay: as above
HLA-B*15:01 = assay: as above; conditions: source organism: Homo sapiens
HLA-B*58:01 = assay: as above; conditions: source organism: Homo sapiens
HLA-A*03:01 = assay: as above
HLA-A*02:01 [4] = assay: IEDB peptide-MHC binding, purified MHC/competitive/fluorescence; filed as Kd, often an IC50 or EC50 that approximates it; ≥ and ≤ were set here for values at or beyond the usual limits of such assays
HLA-A*26:01 = assay: IEDB peptide-MHC binding, purified MHC/competitive/radioactivity; filed as Kd, often an IC50 or EC50 that approximates it; ≥ and ≤ were set here for values at or beyond the usual limits of such assays
HLA-A*68:01 = assay: as above; conditions: source organism: Dengue virus 1 Brazil/97-11/1997
HLA-A*11:01 [5] = assay: as above; conditions: source organism: Dengue virus 1 Brazil/97-11/1997
HLA-A*33:01 = assay: as above; conditions: source organism: Dengue virus 1 Brazil/97-11/1997
HLA-A*31:01 [6] = assay: as above; conditions: source organism: Dengue virus 1 Brazil/97-11/1997
HLA-A*24:02 = assay: as above; conditions: source organism: Dengue virus 3 Martinique/1243/1999
HLA-A*31:01 [7] = assay: IEDB peptide-MHC binding, purified MHC/direct/fluorescence; filed as Kd, often an IC50 or EC50 that approximates it; ≥ and ≤ were set here for values at or beyond the usual limits of such assays; conditions: source organism: Vibrio cholerae
HLA-A*02:01 [8] = assay: as above; conditions: source organism: Burkholderia mallei
HLA-B*40:01 = assay: as above; conditions: source organism: Influenza A virus
HLA-A*01:01 [9] = assay: IEDB peptide-MHC binding, purified MHC/competitive/radioactivity; filed as Kd, often an IC50 or EC50 that approximates it; ≥ and ≤ were set here for values at or beyond the usual limits of such assays; conditions: source organism: Dengue virus 3 Singapore/8120/1995
HLA-A*23:01 = assay: as above; conditions: source organism: Dengue virus 3 Martinique/1243/1999
[10] = source organism: Vaccinia virus WR
[11] = source organism: Lassa virus Josiah
[12] = source organism: Dengue virus 4 Philippines/H241/1956
[13] = source organism: Zaire ebolavirus
[14] = source organism: SARS coronavirus Tor2

Sequence: SLTSINVQA
- IC50 (HLA-A*02:01 [1]; source organism: West Nile virus NY-99): 503 nM

Sequence: SLVYGIRCV
- Kd (HLA-A*02:06; [10]): 168 nM
- Kd (HLA-A*02:03; [10]): 3.83 nM
- Kd (HLA-A*02:02; [10]): 2940 nM

Sequence: SLYKGVYEL
- Kd (HLA-A*02:06; [11]): 394 nM
- Kd (HLA-A*02:03; [11]): 5.81 nM
- Kd (HLA-A*02:02; [11]): 56.8 nM

Sequence: SRNSTHEMY
- Kd (HLA-A*30:02; source organism: Dengue virus 4 Thailand/0348/1991): 1810 nM

Sequence: SSEQTFMYY
- Kd (HLA-A*11:01 [2]): 263 nM
- Kd (HLA-A*01:01 [3]): 42.1 nM
- Kd (HLA-A*69:01; source organism: Homo sapiens): 8340 nM
- Kd (HLA-B*15:01): 1420 nM
- Kd (HLA-B*58:01): 2480 nM
- Kd (HLA-A*03:01; source organism: Homo sapiens): 10200 nM

Sequence: STTGEWPLI
- Kd (HLA-A*02:06; [10]): 1240 nM
- Kd (HLA-A*02:03; [10]): ≥ 44500 nM
- Kd (HLA-A*02:02; [10]): ≥ 21100 nM

Sequence: SVDEEGCGPL
- Kd (HLA-A*02:06; [10]): 12700 nM
- Kd (HLA-A*02:03; [10]): ≥ 38700 nM
- Kd (HLA-A*02:02; [10]): 14800 nM

Sequence: TAIRAGYSI
- Kd (HLA-A*02:06; [10]): 7690 nM
- Kd (HLA-A*02:03; [10]): 9200 nM
- Kd (HLA-A*02:02; [10]): 14500 nM

Sequence: TANIFRGSY
- Kd (HLA-A*30:02; [12]): 6.79 nM

Sequence: TICLKNEGV
- Kd (HLA-A*02:06; [10]): 311 nM
- Kd (HLA-A*02:03; [10]): 120 nM
- Kd (HLA-A*02:02; [10]): 494 nM

Sequence: TPRKKNYHF
- Kd (HLA-A*02:01 [4]; source organism: Vibrio parahaemolyticus K5030): ≥ 20000 nM

Sequence: TTPLISFFGL
- Kd (HLA-A*02:06; [10]): 3360 nM
- Kd (HLA-A*02:03; [10]): 17600 nM
- Kd (HLA-A*02:02; [10]): ≥ 5000 nM

Sequence: TVIEELEKL
- Kd (HLA-A*26:01; [12]): 496 nM

Sequence: TVMDVISRR
- Kd (HLA-A*26:01; source organism: Dengue virus 1 Brazil/97-11/1997): 2340 nM
- Kd (HLA-A*68:01): 7.98 nM
- Kd (HLA-A*11:01 [5]): 30.2 nM
- Kd (HLA-A*33:01): 7.07 nM
- Kd (HLA-A*31:01 [6]): ≥ 39300 nM

Sequence: TWAQNIPTAI
- Kd (HLA-A*24:02): 681 nM

Sequence: TYLHGIFDR
- Kd (HLA-A*31:01 [7]): 17.1 nM
- Kd (HLA-A*03:01; source organism: Vibrio cholerae): ≥ 20000 nM

Sequence: VATDVPSAT
- IC50 (HLA-A*02:01 [1]; [13]): ≥ 157000 nM

Sequence: VIDRLPSET
- Kd (HLA-A*02:06; [10]): 3670 nM
- Kd (HLA-A*02:03; [10]): 742 nM
- Kd (HLA-A*02:02; [10]): 7080 nM

Sequence: VKRLEELLP
- IC50 (HLA-A*02:01 [1]; [13]): ≥ 375000 nM

Sequence: VLKAMHDKKI
- Kd (HLA-A*02:06; [10]): ≥ 69800 nM
- Kd (HLA-A*02:03; [10]): ≥ 33900 nM
- Kd (HLA-A*02:02; [10]): ≥ 48900 nM

Sequence: VLRGRHDAA
- Kd (HLA-A*02:01 [8]): 9250 nM
- Kd (HLA-A*69:01; source organism: Burkholderia mallei): ≥ 20000 nM

Sequence: VMAPDKPSL
- Kd (HLA-A*69:01; source organism: Yellow fever virus): ≥ 20000 nM

Sequence: VMHINSPFKV
- Kd (HLA-A*02:06; [10]): 393 nM
- Kd (HLA-A*02:03; [10]): 2.51 nM
- Kd (HLA-A*02:02; [10]): 60.3 nM

Sequence: VMYASALVLL
- Kd (HLA-A*02:06; [14]): 41.4 nM
- Kd (HLA-A*02:03; [14]): 4.03 nM
- Kd (HLA-A*02:02; [14]): 0.251 nM

Sequence: VQHPELTGL
- Kd (HLA-B*40:01): 136 nM

Sequence: VVQHENLKY
- Kd (HLA-A*30:02; source organism: Dengue virus 3 Singapore/8120/1995): 266 nM
- Kd (HLA-A*01:01 [9]): 2400 nM

Sequence: WLVIGVAFL
- Kd (HLA-A*02:06; [14]): 180 nM
- Kd (HLA-A*02:03; [14]): 0.942 nM
- Kd (HLA-A*02:02; [14]): 2.57 nM

Sequence: YIESKAKQL
- Kd (HLA-A*02:06; [10]): 2990 nM
- Kd (HLA-A*02:03; [10]): 439 nM
- Kd (HLA-A*02:02; [10]): 144 nM

Sequence: YIMRVMANNV
- Kd (HLA-A*02:06; [10]): 14.2 nM
- Kd (HLA-A*02:03; [10]): 1.96 nM
- Kd (HLA-A*02:02; [10]): 23 nM

Sequence: YLVQQESSFV
- Kd (HLA-A*02:06; [14]): 386 nM
- Kd (HLA-A*02:03; [14]): 17.5 nM
- Kd (HLA-A*02:02; [14]): 12700 nM

Sequence: YLVVVGAVGV
- Kd (HLA-A*02:01 [4]; source organism: unidentified): 10 nM

Sequence: YVKNGTKGKL
- Kd (HLA-A*02:06; [10]): ≥ 28400 nM
- Kd (HLA-A*02:03; [10]): 7170 nM
- Kd (HLA-A*02:02; [10]): 5720 nM

Sequence: YWISNGTGNI
- Kd (HLA-A*23:01): 165 nM
